Key:
[1] = tested on: T1, Raytide EL (protein-tyrosine-kinase substrate, MW 2476 Dalton, Messrs. Calbiochem)
T1 sequence: KKKGPWLEEEEEAYGWLDF

[2] = tested on: oligopeptide Ac-Ile-Tyr-Gly-Glu-Phe-NH2 "M-2165" (Messrs. Bachem, MW 668.8)

Substance: Epidermal Growth Factor Receptor Kinase (EGF-RK) isolated from human A 431 carcinoma cells (Messrs. Sigma)
- phosphorylation of the substrate, detected by RIfS through the fall of free anti-phosphotyrosine antibody [1]: The phosphorylation with the alternative substrate (SEQ ID NO.:3) Raytide™ EL is clearly detectable.

Substance: p60c-src-kinase isolated from human cells (Messrs. Calbiochem)
- phosphorylation of the substrate, detected by RIfS (AMD sensor) through the fall of free anti-phosphotyrosine antibody [2]: The phosphorylation is very clearly detectable.
- phosphorylation of the substrate, detected by RIfS (diamino-PEG 2000 sensor) through the fall of free anti-phosphotyrosine antibody [2]: The phosphorylation is very clearly detectable.

— US20050026219
